Assay results published in US20240124528A1 (ACADEMIA SINICA, published 2024).

B4: IL-17RB-Flag (Flag-tagged IL-17RB, wild type) (receptor)
chain: REPTVQCGSETGPSPEWMLQHDLIPGDLRDLRVEPVTTSVATGDYSILMNVSWVLRADASIRLLKATKICVTGKSNFQSYSCVRCNYTEAFQTQTRPSGGKWTFSYIGFPVELNTVYFIGAHNIPNANMNEDGPSMSVNFTSPGCLDHIMKYKKKCVKAGSLWDPNITACKKNEETVEVNFTTTPLGNRYMALIQHSTIIGFSQVFEPHQKKQTRASVVIPVTGDSEGATVQLTPYFPTCGSDCIRHKGTVVLCPQTGVPFPLDNNKSKPGGWLPLLLLSLLVATWVLVAGIYLMWRHERIKKTSFSTTTLLPPIKVLVVYPSEICFHHTICYFTEFLQNHCRSEVILEKWQKKKIAEMGPVQWLATQKKAADKVVFLLSNDVNSVCDGTCGKSEGSPSENSQDLFPLAFNLFCSDLRSQIHLHKYVVVYFREIDTKDDYNALSVCPKYHLMKDATAFCAELLHVKQQVSAGKRSQACHDGCCSL
notes: The construct as expressed; also called Flag-IL-17RB; Flag-tagged WT IL-17RB; not shown: Flag tag
B6: IL-17RB-HA (C-terminally HA-tagged full-length IL-17RB, wild type) (receptor)
chain: REPTVQCGSETGPSPEWMLQHDLIPGDLRDLRVEPVTTSVATGDYSILMNVSWVLRADASIRLLKATKICVTGKSNFQSYSCVRCNYTEAFQTQTRPSGGKWTFSYIGFPVELNTVYFIGAHNIPNANMNEDGPSMSVNFTSPGCLDHIMKYKKKCVKAGSLWDPNITACKKNEETVEVNFTTTPLGNRYMALIQHSTIIGFSQVFEPHQKKQTRASVVIPVTGDSEGATVQLTPYFPTCGSDCIRHKGTVVLCPQTGVPFPLDNNKSKPGGWLPLLLLSLLVATWVLVAGIYLMWRHERIKKTSFSTTTLLPPIKVLVVYPSEICFHHTICYFTEFLQNHCRSEVILEKWQKKKIAEMGPVQWLATQKKAADKVVFLLSNDVNSVCDGTCGKSEGSPSENSQDLFPLAFNLFCSDLRSQIHLHKYVVVYFREIDTKDDYNALSVCPKYHLMKDATAFCAELLHVKQQVSAGKRSQACHDGCCSL
notes: Full-length IL-17RB subcloned into pcDNA3.1, expressed in 293T, IL-17RB-KO BxPC3 or SU.86.86 cells; also called HA-IL-17RB; HA-tagged WT IL-17RB; not shown: HA tag, C-terminal

How the values were obtained:
[1] = target: T1, TRIM56 (tripartite-motif 56), endogenous (human, UniProt Q9BRZ2 1-755); assay: co-IP with anti-Flag beads (FIG. 17F)
T1 construct: also called ubiquitin E3 ligase TRIM56
T1 sequence (looked up): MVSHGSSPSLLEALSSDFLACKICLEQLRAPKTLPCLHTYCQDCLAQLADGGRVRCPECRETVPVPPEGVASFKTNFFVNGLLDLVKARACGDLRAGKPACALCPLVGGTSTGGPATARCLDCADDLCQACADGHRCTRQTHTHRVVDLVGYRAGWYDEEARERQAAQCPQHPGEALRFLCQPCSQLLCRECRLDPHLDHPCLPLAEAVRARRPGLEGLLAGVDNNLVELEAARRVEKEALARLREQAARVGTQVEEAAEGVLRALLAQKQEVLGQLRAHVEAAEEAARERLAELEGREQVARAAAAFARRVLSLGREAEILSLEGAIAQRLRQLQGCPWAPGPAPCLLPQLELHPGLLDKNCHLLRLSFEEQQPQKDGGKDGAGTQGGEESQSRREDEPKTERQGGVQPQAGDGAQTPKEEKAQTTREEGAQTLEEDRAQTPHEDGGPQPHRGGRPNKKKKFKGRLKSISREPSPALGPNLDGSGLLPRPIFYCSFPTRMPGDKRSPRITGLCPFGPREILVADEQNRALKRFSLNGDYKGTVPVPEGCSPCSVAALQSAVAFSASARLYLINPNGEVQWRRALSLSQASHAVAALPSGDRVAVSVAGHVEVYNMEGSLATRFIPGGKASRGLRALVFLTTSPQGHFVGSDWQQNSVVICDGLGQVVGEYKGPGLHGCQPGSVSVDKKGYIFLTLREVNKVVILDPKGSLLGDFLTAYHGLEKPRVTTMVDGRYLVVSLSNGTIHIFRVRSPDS

[2] = target: T2, HA-TRIM56 (TRIM56-HA, HA-tagged tripartite-motif 56) (UniProt Q9BRZ2 1-755); assay: reciprocal co-IP, 293T cells, rIL-17B (FIG. 6D)
T2 construct: also called HA-tagged TRIM56; HA-TIM56; not shown: HA tag of the C-HA vector
T2 sequence (looked up): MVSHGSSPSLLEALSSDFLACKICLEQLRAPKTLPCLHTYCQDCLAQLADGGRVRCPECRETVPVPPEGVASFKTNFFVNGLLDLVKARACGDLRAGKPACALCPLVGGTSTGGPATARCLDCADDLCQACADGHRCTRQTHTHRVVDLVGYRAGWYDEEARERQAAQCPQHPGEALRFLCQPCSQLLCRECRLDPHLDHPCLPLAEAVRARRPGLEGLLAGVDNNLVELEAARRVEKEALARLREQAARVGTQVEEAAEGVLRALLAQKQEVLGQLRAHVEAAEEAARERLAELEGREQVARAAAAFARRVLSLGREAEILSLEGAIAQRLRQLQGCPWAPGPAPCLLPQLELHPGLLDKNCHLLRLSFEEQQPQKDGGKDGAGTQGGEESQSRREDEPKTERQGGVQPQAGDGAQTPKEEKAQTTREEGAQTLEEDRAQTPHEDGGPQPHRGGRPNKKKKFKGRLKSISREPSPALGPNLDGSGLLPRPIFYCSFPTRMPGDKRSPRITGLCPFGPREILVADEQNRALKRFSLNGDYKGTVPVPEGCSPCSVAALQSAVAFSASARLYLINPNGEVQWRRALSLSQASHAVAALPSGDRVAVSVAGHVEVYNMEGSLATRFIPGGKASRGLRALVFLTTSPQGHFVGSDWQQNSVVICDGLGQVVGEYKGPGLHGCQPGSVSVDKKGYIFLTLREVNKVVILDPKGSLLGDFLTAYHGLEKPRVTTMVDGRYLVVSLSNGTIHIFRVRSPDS

[3] = target: B6; assay: co-IP with anti-HA beads, 293T cells, rIL-17B (FIG. 4B)
[4] = target: the molecule itself; assay: Duolink in situ interaction assay with anti-IL-17RB (D9), CFPAC1 cells, 50 ng/ml rIL-17B (FIG. 4D)
[5] = target: B4; assay: Duolink in situ interaction assay with anti-HA and anti-Flag, IL-17RB-KO BxPC3 cells (FIG. 4C, FIG. 13D)
[6] = target: B6; assay: co-IP with anti-HA beads, IL-17RB-KO BxPC3 cells, 50 ng/ml rIL-17B (FIG. 14B)
[7] = target: T2, HA-TRIM56 (TRIM56-HA, HA-tagged …); assay: co-IP in 293T cells (FIG. 6B) and native-PAGE of mixed purified proteins (FIG. 17A)

B1: IL-17RB ΔN458˜V462 (Del-6), Flag-tagged (receptor)
chain: REPTVQCGSETGPSPEWMLQHDLIPGDLRDLRVEPVTTSVATGDYSILMNVSWVLRADASIRLLKATKICVTGKSNFQSYSCVRCNYTEAFQTQTRPSGGKWTFSYIGFPVELNTVYFIGAHNIPNANMNEDGPSMSVNFTSPGCLDHIMKYKKKCVKAGSLWDPNITACKKNEETVEVNFTTTPLGNRYMALIQHSTIIGFSQVFEPHQKKQTRASVVIPVTGDSEGATVQLTPYFPTCGSDCIRHKGTVVLCPQTGVPFPLDNNKSKPGGWLPLLLLSLLVATWVLVAGIYLMWRHERIKKTSFSTTTLLPPIKVLVVYPSEICFHHTICYFTEFLQNHCRSEVILEKWQKKKIAEMGPVQWLATQKKAADKVVFLLSNDVNSVCDGTCGKSEGSPSENSQDLFPLAFNLFCSDLRSQIHLHKYVVVYFREIDTKDDYCPKYHLMKDATAFCAELLHVKQQVSAGKRSQACHDGCCSL
notes: also called Del-6 (ΔN458-V462) IL-17RB; not shown: Flag tag
B1: no binding (tested: 50 ng/ml rIL-17B) [1]; no binding [2].

B2: IL-17RB ΔK470˜Q484 (Del-7), Flag-tagged (receptor)
chain: REPTVQCGSETGPSPEWMLQHDLIPGDLRDLRVEPVTTSVATGDYSILMNVSWVLRADASIRLLKATKICVTGKSNFQSYSCVRCNYTEAFQTQTRPSGGKWTFSYIGFPVELNTVYFIGAHNIPNANMNEDGPSMSVNFTSPGCLDHIMKYKKKCVKAGSLWDPNITACKKNEETVEVNFTTTPLGNRYMALIQHSTIIGFSQVFEPHQKKQTRASVVIPVTGDSEGATVQLTPYFPTCGSDCIRHKGTVVLCPQTGVPFPLDNNKSKPGGWLPLLLLSLLVATWVLVAGIYLMWRHERIKKTSFSTTTLLPPIKVLVVYPSEICFHHTICYFTEFLQNHCRSEVILEKWQKKKIAEMGPVQWLATQKKAADKVVFLLSNDVNSVCDGTCGKSEGSPSENSQDLFPLAFNLFCSDLRSQIHLHKYVVVYFREIDTKDDYNALSVCPKYHLMQVSAGKRSQACHDGCCSL
notes: not shown: Flag tag
B2: no binding [2].

B3: IL-17RB ΔV403˜S416 (Del-3), Flag-tagged (receptor)
chain: REPTVQCGSETGPSPEWMLQHDLIPGDLRDLRVEPVTTSVATGDYSILMNVSWVLRADASIRLLKATKICVTGKSNFQSYSCVRCNYTEAFQTQTRPSGGKWTFSYIGFPVELNTVYFIGAHNIPNANMNEDGPSMSVNFTSPGCLDHIMKYKKKCVKAGSLWDPNITACKKNEETVEVNFTTTPLGNRYMALIQHSTIIGFSQVFEPHQKKQTRASVVIPVTGDSEGATVQLTPYFPTCGSDCIRHKGTVVLCPQTGVPFPLDNNKSKPGGWLPLLLLSLLVATWVLVAGIYLMWRHERIKKTSFSTTTLLPPIKVLVVYPSEICFHHTICYFTEFLQNHCRSEVILEKWQKKKIAEMGPVQWLATQKKAADKVVFLLSNDVNSENSQDLFPLAFNLFCSDLRSQIHLHKYVVVYFREIDTKDDYNALSVCPKYHLMKDATAFCAELLHVKQQVSAGKRSQACHDGCCSL
notes: not shown: Flag tag
B3: no binding [2].

B4: binds [3].

B5: interleukin-17 receptor B (IL-17RB), human, endogenous in pancreatic cancer cells (receptor)
chain: REPTVQCGSETGPSPEWMLQHDLIPGDLRDLRVEPVTTSVATGDYSILMNVSWVLRADASIRLLKATKICVTGKSNFQSYSCVRCNYTEAFQTQTRPSGGKWTFSYIGFPVELNTVYFIGAHNIPNANMNEDGPSMSVNFTSPGCLDHIMKYKKKCVKAGSLWDPNITACKKNEETVEVNFTTTPLGNRYMALIQHSTIIGFSQVFEPHQKKQTRASVVIPVTGDSEGATVQLTPYFPTCGSDCIRHKGTVVLCPQTGVPFPLDNNKSKPGGWLPLLLLSLLVATWVLVAGIYLMWRHERIKKTSFSTTTLLPPIKVLVVYPSEICFHHTICYFTEFLQNHCRSEVILEKWQKKKIAEMGPVQWLATQKKAADKVVFLLSNDVNSVCDGTCGKSEGSPSENSQDLFPLAFNLFCSDLRSQIHLHKYVVVYFREIDTKDDYNALSVCPKYHLMKDATAFCAELLHVKQQVSAGKRSQACHDGCCSL
notes: Endogenous receptor of CFPAC1 / BxPC3 cells, precipitated from lysates or stained in situ; also called interleukin-17B receptor
B5: binds [4].

B6: binds [5].

B7: IL-17RB Y447F, Flag-tagged (receptor)
chain: REPTVQCGSETGPSPEWMLQHDLIPGDLRDLRVEPVTTSVATGDYSILMNVSWVLRADASIRLLKATKICVTGKSNFQSYSCVRCNYTEAFQTQTRPSGGKWTFSYIGFPVELNTVYFIGAHNIPNANMNEDGPSMSVNFTSPGCLDHIMKYKKKCVKAGSLWDPNITACKKNEETVEVNFTTTPLGNRYMALIQHSTIIGFSQVFEPHQKKQTRASVVIPVTGDSEGATVQLTPYFPTCGSDCIRHKGTVVLCPQTGVPFPLDNNKSKPGGWLPLLLLSLLVATWVLVAGIYLMWRHERIKKTSFSTTTLLPPIKVLVVYPSEICFHHTICYFTEFLQNHCRSEVILEKWQKKKIAEMGPVQWLATQKKAADKVVFLLSNDVNSVCDGTCGKSEGSPSENSQDLFPLAFNLFCSDLRSQIHLHKYVVVFFREIDTKDDYNALSVCPKYHLMKDATAFCAELLHVKQQVSAGKRSQACHDGCCSL
notes: also called Y447F mutant of IL-17RB; not shown: Flag tag
B7: binds [6]; no binding [7].
